# Reference: article PMC10373554 (Journal of Virology, 2023)
# B1: S2H97 (antibody, V domains shown)
# VH: QVRLVQSGAEVKKSGESLKISCKGSGYSFTSYWIGWVRQMPGKGLEWMGIIYPGDSDTRYSPSFQGQVTISADKSISTVYLQWSSLKASDTAMYYCARQWSHYTYDYYYWGQGTLVTISS
# VL: QSVLTQPASVSGSPGQSITISCTGISSDVGGYNSVSWYQQHPGKAPKLMIYDVTNRPSGVSNRFSGSKSGNTASLTISGLQAEDEADYYCSSYTSSSTPPYVFGTGTKVSVL
# Molecular target: recombinant RBD protein of SARS-CoV (SARS-CoV (2003), strain of the bought …, UniProt P59594)
# Experiment: SPR
binder,measurement,value
B1,binding result,binds
